Test results as given in US20200291121A1 (JOINT STOCK COMPANY BIOCAD, published 2020).

T1: human IL-5Rα (interleukin 5 receptor α-chain), recombinant extracellular domain (human, UniProt Q01344 21-342)
T1 construct: extracellular domain; also called IL-5Ra; human antigen; not shown: C-terminal tag (EPEA, Fc or H6F)
T1 sequence (looked up): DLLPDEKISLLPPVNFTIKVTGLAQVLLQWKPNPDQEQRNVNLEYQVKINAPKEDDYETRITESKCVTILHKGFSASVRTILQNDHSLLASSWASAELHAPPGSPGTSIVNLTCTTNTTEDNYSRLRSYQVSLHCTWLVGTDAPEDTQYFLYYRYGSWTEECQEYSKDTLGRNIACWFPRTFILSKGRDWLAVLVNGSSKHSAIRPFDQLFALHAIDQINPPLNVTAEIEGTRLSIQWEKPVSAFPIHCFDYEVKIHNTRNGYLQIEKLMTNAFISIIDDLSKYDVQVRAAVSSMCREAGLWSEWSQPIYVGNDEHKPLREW

T2: mouse IL-5Rα, recombinant extracellular domain (mouse, UniProt P21183 18-339)
T2 construct: extracellular domain; also called animal IL-5Rα
T2 sequence (looked up): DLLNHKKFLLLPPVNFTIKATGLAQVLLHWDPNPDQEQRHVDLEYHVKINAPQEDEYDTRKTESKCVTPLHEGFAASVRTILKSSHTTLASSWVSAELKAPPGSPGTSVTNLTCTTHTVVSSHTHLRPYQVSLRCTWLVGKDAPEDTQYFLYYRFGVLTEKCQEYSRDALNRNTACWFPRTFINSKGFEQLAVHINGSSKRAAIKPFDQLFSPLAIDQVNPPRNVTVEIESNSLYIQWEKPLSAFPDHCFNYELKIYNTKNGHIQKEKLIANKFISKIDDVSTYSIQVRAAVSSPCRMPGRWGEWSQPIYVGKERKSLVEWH

T3: cynomolgus monkey IL-5Rα, recombinant extracellular domain (cynomolgus monkey, UniProt C3VEW9 21-342)
T3 construct: extracellular domain; also called macaque IL-5Ra; cynomolgus monkey antigen (IL-5Rα)
T3 sequence: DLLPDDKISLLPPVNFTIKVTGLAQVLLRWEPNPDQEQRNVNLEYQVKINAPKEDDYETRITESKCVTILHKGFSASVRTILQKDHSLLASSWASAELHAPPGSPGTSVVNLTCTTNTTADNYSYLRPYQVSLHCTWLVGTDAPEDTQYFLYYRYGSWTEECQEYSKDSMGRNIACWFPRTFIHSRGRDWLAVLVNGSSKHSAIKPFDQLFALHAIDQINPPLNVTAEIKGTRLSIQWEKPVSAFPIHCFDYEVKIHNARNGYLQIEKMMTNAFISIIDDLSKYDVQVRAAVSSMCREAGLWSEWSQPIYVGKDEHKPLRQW

B1: BCD133-03-020 (antibody, human IgG1, kappa)
heavy: not shown
light: QAGLTQPPSVSAAPGQRVTISCSGSRSNIGSGYDVHWYQQVPGTAPKLLIFDDNNRPSGVPDRFSGSKSGTSASLAITGLQAEDEADYYCQSYDSSLSGHVVFGGGTKLTVLRTVAAPSVFIFPPSDEQLKSGTASVVCLLNNFYPREAKVQWKVDNALQSGNSQESVTEQDSKDSTYSLSSTLTLSKADYEKHKVYACEVTHQGLSSPVTKSFNRGEC
B2: BCD133-03-021 (antibody, human IgG1, kappa, V domains shown)
VH: QVQLQESGGGLVQPGGSLRLSCAASGFTFSNYAMSWVRQAPGKGLEWVSAINSGGKSTNYADSVKGRFTISRDNAKNTLYLQMNSLRAEDTAVYYCADYATNYGVPYFGSWGQGTMVTVSS
VL: QSVLTQPPSVSAAPGQRVTISCSGSRSNIGSGYDVHWYQQLPGTAPKLLIYDDNNRPSGVPDRFSGSKSGTSASLAITGLQAEDEADYYCQSYDSSLSGHVVFGGGTKLTVLR
B3: BCD133-03-002 (antibody, human IgG1, kappa)
heavy: not shown
light: B1 light

Target: IL-5Rα stably expressed on CHO-IL-5R cells
Test: cell-based or functional assay

Chain of IL-5Rα stably expressed on CHO-IL-5R cells (Q01344 whole entry): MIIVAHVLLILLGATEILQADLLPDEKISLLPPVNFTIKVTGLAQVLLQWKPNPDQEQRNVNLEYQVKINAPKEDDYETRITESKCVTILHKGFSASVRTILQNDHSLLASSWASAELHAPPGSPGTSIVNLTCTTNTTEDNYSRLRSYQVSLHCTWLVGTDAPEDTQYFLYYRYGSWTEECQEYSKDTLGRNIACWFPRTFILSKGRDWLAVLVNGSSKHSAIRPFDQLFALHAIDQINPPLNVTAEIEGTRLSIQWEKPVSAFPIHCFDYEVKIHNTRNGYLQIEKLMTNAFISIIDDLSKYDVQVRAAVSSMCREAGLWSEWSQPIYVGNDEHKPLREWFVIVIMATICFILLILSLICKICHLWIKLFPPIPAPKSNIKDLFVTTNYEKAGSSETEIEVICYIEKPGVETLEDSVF

ADCC efficacy (EC50) on CHO-IL-5R cells with PBMC, relative to Benralizumab | Binder
1.6 times (against Benralizumab) | B1
1.6 times (against Benralizumab) | B2
1.6 times (against Benralizumab) | B3

Target: T1, human IL-5Rα (interleukin 5 receptor …)
Test: BLI (Octet RED 384), human IL-5Rα immobilised on AR2G sensors, full-length antibody in solution, 30 °C, 1:1 global model
Method: Experimental study of binding affinity of antibodies to human IL-5Rα antigen was performed on Forte Bio Octert RED 384. Human IL-5Rα at a concentration of 20 μg/ml was immobilized on the surface of AR2G sensors (ForteBio) according to a standard protocol and manufacturer's instructions. Analysis was conducted at 30° C. using PBS comprising 0.1% Tween 20 and 0.1% BSA as a working buffer. After baseline recording, the sensors were immersed into wells containing antibody solution for 300 seconds, where the complex was associated. Complex dissociation in buffer solution was then detected for 600 seconds.
Binding curves, after subtracting a reference signal, were analyzed using Octet Data Analysis (Version 9.0) software in accordance with the standard procedure and using 1:1 Global interaction model. Anti-IL-5Rα antibodies specifically bind to human antigen with high affinity. Table A (FIG. 11, 12, 13)

Kd | Binder
0.667 nM | B1
0.0224 nM | B2
0.527 nM | B3

Target: T2, mouse IL-5Rα, recombinant extracellular …
Test: BLI (Octet RED 384), antibody immobilised on AR2G sensors, antigen in solution

binding result | Binder
no binding | B1
no binding | B2
no binding | B3

Target: T3, cynomolgus monkey IL-5Rα, recombinant …
Test: BLI (Octet RED 384), antibody immobilised on AR2G sensors, cynomolgus IL-5Rα in solution, 30 °C, 1:1 global model
Method: Experimental study of binding affinity of antibodies to animal IL-5Rα antigen was performed on Forte Bio Octert RED 384. Antibodies at a concentration of 20 μg/ml were immobilized on the surface of AR2G sensors (Forte Bio) according to a standard protocol and manufacturer's instructions. Analysis was conducted at 30° C. using PBS comprising 0.1% Tween 20 and 0.1% BSA as a working buffer. After baseline recording, the sensors were immersed into wells containing antigen solution (animal IL-5Rα) for 300 seconds, where the complex was associated. Complex dissociation in buffer solution was then detected for 600 seconds.
Binding curves, after subtracting a reference signal, were analyzed using Octet Data Analysis (Version 9.0) software in accordance with the standard procedure and using 1:1 Global interaction model. Anti-IL-5Rα antibodies specifically bind to cynomolgus monkey antigen. Table B. FIG. 16,17,18.

Kd | Binder
12.2 nM | B1
16.8 nM | B2
5.53 nM | B3
